In US20180111972A1 (Stanford University, published 2018):
Changes are numbered by the printed parent chain. Numbers in names are those of the source.

Legend:
[1] = target: T1, soluble VEGFR2 (Fc or His format not stated for the experiment) (human, UniProt P35968 20-764); assay: yeast surface display, flow cytometry dot plot: soluble receptor bound (FL1) against surface expression (FL2); receptor concentration not given
T1 construct: extracellular domain

scPDGF, yeast-displayed = target: T2, scPDGF, yeast-displayed (human); assay: yeast surface display of scPDGF, flow cytometry titration of PDGFRβ-Fc, anti-mouse-Fc detection
T2 chain: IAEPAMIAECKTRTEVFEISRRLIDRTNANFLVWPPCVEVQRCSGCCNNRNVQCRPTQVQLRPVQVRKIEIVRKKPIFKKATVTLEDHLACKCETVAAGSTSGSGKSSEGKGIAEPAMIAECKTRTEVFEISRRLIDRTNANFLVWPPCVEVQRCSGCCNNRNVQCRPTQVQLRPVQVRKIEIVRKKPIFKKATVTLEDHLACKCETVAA
Procedure: (§1) Cells were incubated in large enough volumes to avoid ligand depletion and appropriate time to reach equilibrium. During the last hour of incubation, yeast were incubated with 1:250 dilution of chicken anti-c-Myc (Invitrogen) in PBSA. […] Yeast were washed, pelleted, and resuspended in PBSA immediately before analysis by flow cytometry using BD FACSCalibur or BD Accuri C6. Flow cytometry data were analyzed using FlowJo (v7.6.1 and v10, Treestar) or BD Accuri C6 software. Statistical analysis was performed using GraphPad Prism 6.
Bound protein was detected using fluorescently-labeled anti-His and anti-mouse-Fc antibodies.

[2] = target: T3, scPDGF, single-chain version of wild-type PDGF-BB, soluble, FLAG and hexahistidine tags (human); assay: cell-based or functional assay
T3 chain: T2 chain

[3] = target: T4, VEGFR2-His (residues 1-764 of VEGFR2, Ig-like domains 1-7, with hexahistidine tag) (human, UniProt P35968 20-764); assay: KinExA, equilibrium titration in solution, n-curve analysis
T4 construct: range 1-764; Monomeric form, expressed in FreeStyle 293-F cells; also called VEGFR-His
T4 sequence (P35968 other isoform, or with tags, fused parts or gaps limits assumed, form in doubt): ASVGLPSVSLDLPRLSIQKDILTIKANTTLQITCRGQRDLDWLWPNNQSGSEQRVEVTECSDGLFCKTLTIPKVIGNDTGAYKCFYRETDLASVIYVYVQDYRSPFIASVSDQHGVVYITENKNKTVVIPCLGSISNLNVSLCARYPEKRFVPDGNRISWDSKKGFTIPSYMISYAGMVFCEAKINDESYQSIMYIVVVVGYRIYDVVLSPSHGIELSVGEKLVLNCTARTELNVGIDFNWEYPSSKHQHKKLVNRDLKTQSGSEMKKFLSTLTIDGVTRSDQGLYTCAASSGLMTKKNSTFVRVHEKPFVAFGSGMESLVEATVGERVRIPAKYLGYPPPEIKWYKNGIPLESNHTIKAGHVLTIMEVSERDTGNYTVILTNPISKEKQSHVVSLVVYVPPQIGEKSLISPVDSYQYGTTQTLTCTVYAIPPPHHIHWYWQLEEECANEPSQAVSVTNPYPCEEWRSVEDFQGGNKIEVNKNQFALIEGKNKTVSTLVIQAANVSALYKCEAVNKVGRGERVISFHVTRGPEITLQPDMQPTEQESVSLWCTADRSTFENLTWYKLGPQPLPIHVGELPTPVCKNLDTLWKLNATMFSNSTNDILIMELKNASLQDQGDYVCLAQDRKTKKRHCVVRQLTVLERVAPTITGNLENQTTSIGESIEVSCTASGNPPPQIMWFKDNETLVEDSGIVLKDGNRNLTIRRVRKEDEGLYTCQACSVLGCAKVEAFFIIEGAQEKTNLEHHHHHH
Procedure: (§2) For KinExA measurements, a constant amount of PDGF/VEGF ligand is titrated with differing concentrations of PDGRβ-His or VEGFR2-His. The solutions are incubated for an appropriate amount of time to allow the ligand-receptor binding reaction to reach equilibrium. The solution is then briefly exposed to a solid support containing immobilized PDGFR or VEGFR, which captures unbound ligand. The amount of ligand bound to the solid support is then detected using a fluorescently-labeled antibody. […] For each binding interaction measured, curves for two concentrations of the constant ligand are performed. By performing two experiments with fixed ligand concentrations above and below the Kd, and fitting both sets of data with a nonlinear regression analysis, a more accurate measurement for the affinity can be obtained.
(§3) Kinetic Exclusion Assay (KinExA). All experiments were performed on a KinExA 3200 instrument with siliconized flow cell (Sapidyne Instruments Inc). […] 30 μg of receptor was incubated in 1 ml of 50 mM sodium bicarbonate, 0.5 M sodium citrate buffer, pH 8.3, for 2 hr at room temperature with rocking. Beads were allowed to settle by gravity and liquid removed. Beads were blocked by incubating in 1 ml of 10 mg/ml BSA in 1 M Tris buffer, pH 8.0, for 1 hr at room temperature with rocking, and stored in blocking buffer at 4° C. for up to one week until use. Running buffer contained PBS with 10 mM imidazole and 0.02% sodium azide. Samples were prepared in running buffer with 1 mg/ml BSA. Binding reactions were prepared with a fixed concentration of PDGF/VEGF ligands and dilution series of PDGFR or VEGFR. Captured PDGF/VEGF ligands were detected using a Dylight 649-conjugated anti-FLAG antibody (Rockland) at 1:1000 dilution in sample buffer. Kinetic experiments were performed with the “Kinetics Injection” method defined in the KinExA software. Data were analyzed with KinExA Pro Software.

[4] = target: T5, PDGFRβ-His (residues 1-314 of PDGFR-β with C-terminal hexahistidine tag) (human, UniProt P09619 33-314); assay: as above
T5 construct: range 1-314; Monovalent form, expressed in FreeStyle 293-F cells; also called PDGRβ-His; PDGFR-His
Procedure: as §2, §3

[5] = target: T4, VEGFR2-His (residues 1-764 of VEGFR2, …); assay: KinExA Kinetics Injection
Procedure: (§4) Additionally, the kinetic parameter kₒₙ can be determined by using a “kinetics injection” experiment. A constant concentration of PDGF/VEGF ligand is injected with an equal volume of differing concentrations of PDGRβ-His or VEGFR2-His. The two solutions are allowed to mix briefly (several seconds) in the time required for the instrument to deliver the mixture to the detection bead column. The pre-equilibrium concentrations of free ligand is fit to the standard bimolecular rate equation to obtain kₒₙ.
(§5) Kinetic Exclusion Assay (KinExA). All experiments were performed on a KinExA 3200 instrument with siliconized flow cell (Sapidyne Instruments Inc). […] 30 μg of receptor was incubated in 1 ml of 50 mM sodium bicarbonate, 0.5 M sodium citrate buffer, pH 8.3, for 2 hr at room temperature with rocking. Beads were allowed to settle by gravity and liquid removed. Beads were blocked by incubating in 1 ml of 10 mg/ml BSA in 1 M Tris buffer, pH 8.0, for 1 hr at room temperature with rocking, and stored in blocking buffer at 4° C. for up to one week until use. Running buffer contained PBS with 10 mM imidazole and 0.02% sodium azide. Samples were prepared in running buffer with 1 mg/ml BSA. Binding reactions were prepared with a fixed concentration of PDGF/VEGF ligands and dilution series of PDGFR or VEGFR. Captured PDGF/VEGF ligands were detected using a Dylight 649-conjugated anti-FLAG antibody (Rockland) at 1:1000 dilution in sample buffer. Kinetic experiments were performed with the “Kinetics Injection” method defined in the KinExA software. Data were analyzed with KinExA Pro Software. The Kd was determined from a global fit of two concentration curves using the “n-curve analysis” tool and the titrant concentrations as reference. […] The kₒₙ was calculated as a fit of the pre-equilibrium free ligand concentrations to the bimolecular binding equation using the “Kinetics Injection” tool.

[6] = target: T5, PDGFRβ-His (residues 1-314 of PDGFR-β …); assay: KinExA Kinetics Injection
Procedure: as §4, §5

[7] = target: T4, VEGFR2-His (residues 1-764 of VEGFR2, …); assay: KinExA, calculated from Kd and kon
Procedure: (§6) By performing two experiments with fixed ligand concentrations above and below the Kd, and fitting both sets of data with a nonlinear regression analysis, a more accurate measurement for the affinity can be obtained.
as §4, §5

[8] = target: T5, PDGFRβ-His (residues 1-314 of PDGFR-β …); assay: KinExA, calculated from Kd and kon
Procedure: as §6, §4, §5

[9] = target: T6, human VEGFR on human umbilical vein endothelial cells (HUVECs) (human, UniProt P35968 20-1356); assay: flow cytometry on HUVECs, soluble ligand titrated 3 h at 4 C, anti-FLAG-PE
T6 construct: The phosphorylation blots on these cells detect VEGFR2
T6 sequence (P35968 20-1356 limits assumed): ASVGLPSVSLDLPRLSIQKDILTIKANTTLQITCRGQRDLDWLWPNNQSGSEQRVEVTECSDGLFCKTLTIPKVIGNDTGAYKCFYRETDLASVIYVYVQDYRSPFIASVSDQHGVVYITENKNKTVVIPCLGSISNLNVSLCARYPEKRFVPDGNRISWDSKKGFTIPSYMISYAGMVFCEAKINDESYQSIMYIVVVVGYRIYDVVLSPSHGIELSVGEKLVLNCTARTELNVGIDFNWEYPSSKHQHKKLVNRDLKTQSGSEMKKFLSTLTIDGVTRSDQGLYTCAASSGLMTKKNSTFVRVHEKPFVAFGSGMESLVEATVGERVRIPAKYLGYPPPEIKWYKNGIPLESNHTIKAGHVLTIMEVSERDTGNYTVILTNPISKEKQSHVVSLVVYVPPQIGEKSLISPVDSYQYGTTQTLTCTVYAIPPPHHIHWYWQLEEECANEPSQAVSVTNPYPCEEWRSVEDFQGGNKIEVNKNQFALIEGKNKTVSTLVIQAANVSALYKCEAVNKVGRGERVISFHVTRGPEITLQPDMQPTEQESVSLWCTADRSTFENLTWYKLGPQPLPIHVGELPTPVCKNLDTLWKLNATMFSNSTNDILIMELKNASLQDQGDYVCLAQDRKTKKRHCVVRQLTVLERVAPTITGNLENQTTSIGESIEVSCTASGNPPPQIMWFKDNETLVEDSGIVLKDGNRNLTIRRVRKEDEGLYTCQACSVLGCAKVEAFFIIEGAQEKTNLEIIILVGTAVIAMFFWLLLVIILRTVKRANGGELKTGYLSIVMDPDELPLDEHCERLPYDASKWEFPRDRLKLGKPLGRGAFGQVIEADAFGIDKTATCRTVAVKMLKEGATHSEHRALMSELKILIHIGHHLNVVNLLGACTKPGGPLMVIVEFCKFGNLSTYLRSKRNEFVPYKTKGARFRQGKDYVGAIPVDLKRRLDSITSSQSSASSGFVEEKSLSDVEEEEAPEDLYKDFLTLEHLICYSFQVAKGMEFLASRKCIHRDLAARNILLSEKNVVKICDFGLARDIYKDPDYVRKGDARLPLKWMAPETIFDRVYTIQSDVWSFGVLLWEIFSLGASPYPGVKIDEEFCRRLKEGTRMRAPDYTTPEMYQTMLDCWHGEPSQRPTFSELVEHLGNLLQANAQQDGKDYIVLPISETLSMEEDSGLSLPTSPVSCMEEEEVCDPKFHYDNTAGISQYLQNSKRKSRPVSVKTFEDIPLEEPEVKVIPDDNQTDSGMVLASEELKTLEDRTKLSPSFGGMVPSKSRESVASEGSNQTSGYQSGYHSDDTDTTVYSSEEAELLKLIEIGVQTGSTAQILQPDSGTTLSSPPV
Procedure: (§7) To test binding to VEGFR, human umbilical vein endothelial cells (HUVECs) and murine angiosarcoma endothelial cells (SVR) were used.
(§8) Cell-binding assay. Varying concentrations of scPDGF, scVEGF, and PDGF/VEGF ligands were incubated with 25,000 PDGFR- or VEGFR-expressing cells in binding buffer (20 mM Tris pH 7.5 with 1 mM MgCl₂, 1 mM MnCl₂, 2 mM CaCl₂, 100 mM NaCl, and 1 mg/ml BSA) for 5 hr (BJ-5ta, NIH/3T3) or 3 hr (HUVEC, SVR) at 4° C. Cells were washed and pelleted, then incubated with 1:100 R-PE-conjugated anti-FLAG antibody (Prozyme) for 15 min on ice. Cells were washed, pelleted, and resuspended in binding buffer immediately before analysis by flow cytometry using BD Accuri C6. Flow cytometry data were analyzed using BD Accuri C6 software, and statistical analysis was performed using GraphPad Prism 6.

[10] = target: T6, human VEGFR on human umbilical vein …; assay: flow cytometry titration of the soluble FLAG-tagged protein on HUVECs, anti-FLAG detection
Procedure: as §7, §8

VEGFR2-Fc (R&D Systems) = target: T7, VEGFR2-Fc (R&D Systems) (human, UniProt P35968 20-764); assay: yeast surface display, flow cytometry: VEGFR2-Fc bound, with and without pre-incubation with 100 nM PDGFRβ-Fc
T7 construct: extracellular domain; Bought reagent; also called VEGFR-Fc; not shown: Fc part, detected with anti-human-IgG (Fc specific)
T7 sequence (P35968 20-764): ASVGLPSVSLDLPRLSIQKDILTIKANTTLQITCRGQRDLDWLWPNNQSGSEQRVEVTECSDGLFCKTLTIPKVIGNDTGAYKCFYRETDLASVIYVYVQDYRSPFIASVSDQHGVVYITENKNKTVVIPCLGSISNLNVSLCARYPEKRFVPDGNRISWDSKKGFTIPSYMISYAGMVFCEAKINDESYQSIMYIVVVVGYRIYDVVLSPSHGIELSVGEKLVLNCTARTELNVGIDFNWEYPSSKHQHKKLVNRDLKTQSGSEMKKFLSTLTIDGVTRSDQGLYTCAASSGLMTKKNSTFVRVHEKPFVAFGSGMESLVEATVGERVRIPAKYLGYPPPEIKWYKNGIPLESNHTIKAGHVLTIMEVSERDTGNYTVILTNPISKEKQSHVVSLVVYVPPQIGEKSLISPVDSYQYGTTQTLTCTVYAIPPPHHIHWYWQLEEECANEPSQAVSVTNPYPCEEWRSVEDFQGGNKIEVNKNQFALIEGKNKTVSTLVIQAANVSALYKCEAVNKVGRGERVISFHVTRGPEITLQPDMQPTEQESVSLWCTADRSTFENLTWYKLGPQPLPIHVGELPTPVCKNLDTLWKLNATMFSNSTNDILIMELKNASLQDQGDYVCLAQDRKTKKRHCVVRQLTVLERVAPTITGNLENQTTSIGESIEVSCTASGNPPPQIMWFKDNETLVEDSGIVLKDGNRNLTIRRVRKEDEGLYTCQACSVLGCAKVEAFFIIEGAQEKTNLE
Procedure: as §1

[11] = target: T5, PDGFRβ-His (residues 1-314 of PDGFR-β …); assay: yeast surface display, flow cytometry titration of PDGFRβ-His (panel 'PDGFRβ binding')
Procedure: as §1

[12] = target: T8, soluble PDGFRβ (Fc or His format not stated for the experiment) (human, UniProt P09619 33-532); assay: yeast surface display, flow cytometry titration of soluble receptor; panel 'PDGFR binding', Fc or His form not given
T8 construct: extracellular domain

[13] = target: T8, soluble PDGFRβ (Fc or His format not …); assay: yeast surface display titration; table under the panel 'PDGFR binding', Fc or His form not given
[14] = target: T5, PDGFRβ-His (residues 1-314 of PDGFR-β …); assay: yeast surface display titration, flow cytometry
Procedure: as §1

[15] = target: T1, soluble VEGFR2 (Fc or His format not …); assay: yeast surface display titration; table under the panel 'VEGFR binding', Fc or His form not given
[16] = target: T4, VEGFR2-His (residues 1-764 of VEGFR2, …); assay: yeast surface display titration, flow cytometry
Procedure: as §1

T1 sequence (P35968 20-764): as above

B1: PV1 PDGF/VEGF hybrid construct, yeast-displayed (designed binder)
chain: IAEPAMIAECKTRETLVDIFQEYPDEIEYIFKPSCVPLMRCSGCCNNRNVQCRPTEESNITMQIMRIKPHQGQHIGEMSFLQHLACKCETVAAGSTSGSGKSSEGKGEVVKFMDVYQRSYCHPITEVFEISRRLIDRTNANFLVWPPCVEVQRCGGCCNDEGLECVPTQVQLRPVQVRKIEIVRKKPIFKKATVTLEDHNKCECRPKKD
[1]
  binding result: binds

B2: PDGFRβ-Fc (residues 1-314 of PDGFR-β fused to the Fc region of mouse IgG2a) (Fc fusion)
chain: LVVTPPGPELVLNVSSTFVLTCSGSAPVVWERMSQEPPQEMAKAQDGTFSSVLTLTNLTGLDTGEYFCTHNDSRGLETDERKRLYIFVPDPTVGFLPNDAEELFIFLTEITEITIPCRVTDPQLVVTLHEKKGDVALPVPYDHQRGFSGIFEDRSYICKTTIGDREVDSDAYYVYRLQVSSINVSVNAVQTVVRQGENITLMCIVIGNEVVNFEWTYPRKESGRLVEPVTDFLLDMPYHIRSILHIPSAELEDSGTYTCNVTESVNDHQDEKAINITVVESG
notes: range 1-314; Expressed in FreeStyle 293-F cells; also called PDGRβ-Fc; PDGFR-Fc; not shown: Fc region of mouse IgG2a
scPDGF, yeast-displayed
  EC50 (read off the curve): ~0.03 nM
[2]
  IC50 of inhibition of NIH/3T3 proliferation stimulated by scPDGF, alamarBlue: 8.7 nM
  IC50 of inhibition of stimulation by 100 pM scPDGF, PathHunter reporter cells: 130 pM

B3: PV6 PDGF/VEGF chimera, soluble, N-terminal FLAG and C-terminal hexahistidine tags (designed binder)
chain: DYKDDDDKIAEPAMIAECHPIETLVDIFQEYPDEIEYIFKPSCVPLMRCGGCCNNRNVQCRPTEESNITMQIMRIKPHQGQHIGEMSFLQHNKCKCETVAAGSTSGSGKSSEGKGEVVKFMDVYQRSYCKTRTEVFEISRRLIDRTNANFLVWPPCVEVQRCSGCCNDEGLECVPTQVQLRPVQVRKIEIVRKKPIFKKATVTLEDHLACKCRPKKDHHHHHH
notes: Secreted from S. cerevisiae YVH10 and treated with Endo Hf; also called soluble PV6
[3]
  Kd: 38 nM
[4]
  Kd: 0.87 nM
[5]
  kon: 240000 M⁻¹ s⁻¹
[6]
  kon: 2.2e+07 M⁻¹ s⁻¹
[7]
  koff: 0.0092 s⁻¹
[8]
  koff: 0.019 s⁻¹
[9]
  Kd: 11 nM
[10]
  EC50 (read off the curve): ~10 nM

B4: PVRF (PV6 with K87R and I182F), yeast-displayed (designed binder)
chain: IAEPAMIAECHPIETLVDIFQEYPDEIEYIFKPSCVPLMRCGGCCNNRNVQCRPTEESNITMQIMRIKPHQGQHIGEMSFLQHNKCRCETVAAGSTSGSGKSSEGKGEVVKFMDVYQRSYCKTRTEVFEISRRLIDRTNANFLVWPPCVEVQRCSGCCNDEGLECVPTQVQLRPVQVRKIEFVRKKPIFKKATVTLEDHLACECRPKKD
VEGFR2-Fc (R&D Systems)
  binding result: binds
[11]
  EC50 (read off the curve): ~0.3 nM
[12]
  EC50 (read off the curve): ~0.2 nM
[13]
  Kd: 0.24 nM
[14]
  Kd: 0.37 nM

B5: V4-22 (PV6 with F20L, E28G, Q71R, D160H), yeast-displayed (designed binder)
chain: B4 chain with F20L, E28G, Q71R, R87K, D160H, F182I
notes: Variant from the Vshuf library
[15]
  Kd: 1.9 nM
[16]
  Kd: 1.3 nM
